Values of other authors in paper PMC11695704.

Target: Clr-b (Mus musculus) (UniProt Q91V08)
Chain of UniProt Q91V08 (Q91V08 whole entry): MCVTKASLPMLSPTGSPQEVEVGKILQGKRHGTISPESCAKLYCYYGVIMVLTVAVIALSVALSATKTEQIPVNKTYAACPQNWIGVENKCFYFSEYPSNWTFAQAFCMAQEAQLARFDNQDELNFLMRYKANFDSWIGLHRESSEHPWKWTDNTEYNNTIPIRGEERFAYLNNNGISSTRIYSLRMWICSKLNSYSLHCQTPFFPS

NKR-P1B (from UniProt P27812)
Kd: > 500 µM
